Source: patent publication US20110311517A1, “Antibodies and methods for treating estrogen receptor-associated diseases” (SHENOGEN PHARMA GROUP, LTD., priority 2009, published 2011)
Marks after values point to notes of the source that are not given here.

Tests used:
ERα36 = molecular target: T1, ERα36 (Homo sapiens, UniProt P03372); experiment: ELISA of re-natured ScFv binding to ERα36
T1 construct: made in house; host or cells: chemical synthesis (no expression host)
T1 sequence (P03372 284-310 isoform P03372-4 limits assumed): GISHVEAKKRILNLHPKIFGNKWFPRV
Method: Streptavidin-coated 96-well plates were washed twice with PBS. Biotinylated ERα36 (final concentration of 20 μg/ml) was added into each testing well. The plates were incubated for 2 h at room temperature and washed three times with PBST. Re-natured ScFv samples (100 μl, S14A1r1, S24A2r2, S33A2r1, S41A3r3, S53A1r1, S66A1r1 and S72A2r1) were added into the testing wells respectively. Each ScFv was diluted five times in five gradients, and two parallel wells were loaded with each ScFv at each gradient. The plates were incubated at 37° C. for 1 h. The plates were washed three times with PBST, followed by addition of 100 μl anti-His-6 mouse monoclonal antibody (1:2000 dilution) per well and 1 h incubation at 37° C. The plates were washed three times with PBST, followed by addition of 100 μl goat anti-mouse-HRP (1:2500 dilution) per well and 1 h incubation at 37° C. The plates were washed six times with PBST, followed by addition of 100 μl OPD to develop under the protection from light. The reactions were terminated by adding 50 μl 2M H2SO4 to each well, and data were collected by microplate reader at 490 nm.
One positive control and three negative controls were performed in parallel. The positive control used rabbit anti-ER multi-clonal antibody serum in replacement of the ScFv re-natured sample and goat-anti-rabbit-HRP in replacement of goat-anti-mouse HRP.

[1] = test system: Human breast tumor BCAP-37; experiment: Tumor growth inhibition in BCAP-37 tumor-bearing nude mice; assay type: in vivo, BALB/c-nu nude mice
Description: 49 female BALB/c-nu nude mice (provided by department of laboratory animal science, Peking University Health Science Center) were used in the studies.
(§1) The tested animals were grouped into 7 groups with 7 nude mice in each group. The seven groups are the negative control group treated with human IgG antibody (purchased from Beijing Biosynthesis Biotechnology Co. Ltd.), the positive control group treated with herceptin (provided by Beijing Shenogen pharma group), the multi-clonal antibody test group treated with rabbit anti-ERα36 multi-clonal antibody (provided by Wang, Zhao-Yi group, Creighton University), and the monoclonal antibody test groups treated with human anti-ERα36 monoclonal ScFv1, ScFv3, ScFv4 and ScFv7 respectively.
(§2) The test groups were administered with the same dose of rabbit anti-ERα36 multi-clonal antibody, human anti-ERα36 monoclonal ScFv1, ScFv3, ScFv4 and ScFv7 respectively (5 mg/kg, 100 μg/dose). The positive control group was administered with 5 mg/kg herceptin (100 μg/dose,), and the negative control group was administered with 5 mg/kg IgG antibody (100 μg/dose).
(§3) Human breast tumor BCAP-37 (estrogen receptor positive, provided by department of pharmacology, Institute of Materia Medica, Chinese Academy of Medical Sciences) was implanted subcutaneously into the armpit of the right forelimb of each tested nude mouse. Diethylstilbestrol was administered by gavage with the dose of 7 μg/day for 9 consecutive days after the implantation. On day 10, the mice were grouped into 7 groups and administered with the corresponding drug via intravenous injection, at a dosing interval of 3-4 days, for 6 consecutive doses. Every 3-4 days, the tumor-bearing mice were weighed and their tumor sizes were measured. Parameters were calculated using the following equations:
Volume of Tumor in animals of each group (VT): Vt=½×a×b^2, (Equation 1),
wherein a and b represent the length and width of the tumor, respectively;
wherein V0 is the volume of tumor before drug administration at the time of grouping, Vt is the volume of tumor at each measurement; the calculation method of V0 is the same as that of Vt;
wherein TRTV is the arithmetic mean of RTV of the test groups, and CRTV is the arithmetic mean of RTV of the negative control group.
The tumor bearing mice in each group were terminated after 21 days of observations and drug administrations. The tumors were then excised from the animals, photographed and weighed on 1/10000 analytical balance. The average tumor weights and tumor growth inhibition rates were calculated:
All experimental data were shown in mean±standard deviation. Groups were compared using statistical t test.

[2] = Body weight and mortality of tumor-bearing nude mice during drug administration; assay type: in vivo, BALB/c-nu nude mice; settings: mean ± SD
Description: as §1, §2
as §3, with “equations: […]” for “equations:”

implanted tumors = experiment: Comparison of anti-tumor activity of ScFv-7 with tamoxifen on tumor-bearing nude mice; assay type: in vivo, BALB/c-nu female nude mice; settings: after 18 days of drug administration
Method: BALB/c-nu female nude mice were divided into 3 groups, with 7 mice in each group.
Human anti-ERα36 ScFv-7 was administered at the dose of 0.1 mg/20 g body weight/day. The positive control tamoxifen was administered at the dose of 0.33 mg/20 g body weight/day. The negative control group was administered with human IgG.
The tumor-bearing nude mice were weighed, and the volumes of the implanted tumors were measured every 3-4 days. The relative tumor volumes and tumor growth inhibition rates were calculated using Equation 2 and Equation 4 respectively. Animals received drug administration for 18 days and were terminated 24 h later. The tumors were excised from the animals and weighed. The average tumor weights and tumor growth inhibitions were calculated using Equation 4.

[3] = ScFv concentration 200.00 μg/ml
[4] = BCAP-37 nude mice, 5 mg/kg i.v. every 3-4 days, 6 doses, mean ± SD
[5] = BCAP-37 nude mice, 5 mg/kg i.v. every 3-4 days, Vt relative to V0, mean ± SD
[6] = 5 mg/kg i.v. every 3-4 days, 6 doses

B1: ScFv7: fully human anti-ERα36 single chain antibody, SEQ ID NO: 15 (protein)
scFv: QSVLTQPPSVSAAPGQKVTISCSGSSSNIGNNYVSWYQQLPGTAPKLLIYDNNKRPSGIPDRFSGSKSGTSATLGITGLQTGDEADYYCGTWDSSLSAGVFGGGTKLTVLGSGGSTITSYNVYYTKLSSSGTEVQLVQSGGGLVQPGRSLRLSCAASGFTFDDYAMHWVRQAPGKGLEWVSGISWNSGSIGYADSVKGRFTISRDNAKNSLYLQMNSLRAEDTALYYCAKEGDSSGWSPDYWGQGTLVTVSSAS
modifications: scFv7
ERα36; ScFv concentration 0.32 μg/ml
  OD490 Well1: 0.122
  OD490 Well2: 0.111
ERα36; ScFv concentration 1.60 μg/ml
  OD490 Well1: 0.146
  OD490 Well2: 0.155
ERα36; ScFv concentration 8.00 μg/ml
  OD490 Well1: 0.171
  OD490 Well2: 0.155
ERα36; ScFv concentration 40.00 μg/ml
  OD490 Well1: 0.294
  OD490 Well2: 0.311
ERα36; [3]
  OD490 Well1: 0.690
  OD490 Well2: 0.740
[1]; [4]
  Tumor volumes, Day 4 after drug administration: 186.11 ± 71.13^a mm^3
  Tumor volumes, Day 7 after drug administration: 308.85 ± 117.52^b mm^3
  Tumor volumes, Day 11 after drug administration: 1521.45 ± 366.24^b mm^3
  Tumor volumes, Day 14 after drug administration: 2136.49 ± 479.95^b mm^3
  Tumor volumes, Day 18 after drug administration: 2944.61 ± 526.75^b mm^3
  Tumor volumes, Day 21 after drug administration: 3358.43 ± 445.13^b mm^3
[1]; [5]
  relative tumor volume (RTV), Day 4: 3.81 ± 1.54^b
  relative tumor volume (RTV), Day 7: 6.45 ± 2.86^b
  relative tumor volume (RTV), Day 11: 31.64 ± 10.24^b
  relative tumor volume (RTV), Day 14: 44.48 ± 13.69^b
  relative tumor volume (RTV), Day 18: 61.54 ± 18.25^b
  relative tumor volume (RTV), Day 21: 70.27 ± 19.61^b
[1]; BCAP-37 nude mice, 5 mg/kg i.v., 6 doses
  inhibition of tumor growth in tumor-bearing mice (in words): strongest inhibitory activities
[1]; baseline, BCAP-37 nude mice, 5 mg/kg i.v. every 3-4 days, 6 doses, mean ± SD
  Tumor volumes, Before drug administration: 50.62 ± 13.32 mm^3
[1]; excised tumors after 21 days
  tumor sizes at pathological examination (in words): the smallest among the mono-clonal antibody groups
[1]; excised tumors after 21 days, BCAP-37 nude mice, 5 mg/kg i.v., 6 doses, mean ± SD
  Tumor weight: 2.860 ± 0.696 g
[1]; from average tumor weights after 21 days vs negative control, 5 mg/kg i.v., 6 doses
  Tumor growth inhibition rate (%): 57.97%
[2]; [6]
  Body weights of tumor-bearing nude mice, Day 4 after drug administration: 20.02 ± 0.51
  Body weights of tumor-bearing nude mice, Day 7 after drug administration: 20.65 ± 0.24
  Body weights of tumor-bearing nude mice, Day 11 after drug administration: 21.34 ± 0.51
  Body weights of tumor-bearing nude mice, Day 14 after drug administration: 22.01 ± 0.52
  Body weights of tumor-bearing nude mice, Day 18 after drug administration: 23.15 ± 0.58
  Body weights of tumor-bearing nude mice, Day 21 after drug administration: 23.52 ± 0.47
[2]; baseline at the time of grouping
  body weight when grouped: 19.67 ± 0.67
[2]; baseline, 5 mg/kg i.v. every 3-4 days, 6 doses
  Body weights of tumor-bearing nude mice, Before drug administration: 19.67 ± 0.67
Implanted tumors
  tumor sizes at pathological examination (in words): significantly smaller than those of the negative group
  tumor volume (VT), relative tumor volume (RVT) and relative tumor growth rate (T/C %) versus negative control group: significantly lower
Implanted tumors; ScFv-7 0.1 mg/20 g body weight/day, tamoxifen 0.33 mg/20 g body weight/day
  tumor inhibition rates: around 60%
Implanted tumors; p-values below 0.01
  average tumor weights compared with negative group: significant difference
